{
  "source": "patent US20180335435A1",
  "about": "(METAFORA BIOSYSTEMS, published 2018)",
  "target": "T1, human CAT1 (cationic amino acid transporter-1, SLC7A1) (human, UniProt P30825 1-629)",
  "T1 construct": "Endogenous on HEK293T cells or expressed from a human CAT1 vector in QT6, HEK293T or CHO cells; also called CAT1/SLC7A1; Hu-CAT1",
  "T1 sequence (P30825 whole entry, the tested form may be a part)": "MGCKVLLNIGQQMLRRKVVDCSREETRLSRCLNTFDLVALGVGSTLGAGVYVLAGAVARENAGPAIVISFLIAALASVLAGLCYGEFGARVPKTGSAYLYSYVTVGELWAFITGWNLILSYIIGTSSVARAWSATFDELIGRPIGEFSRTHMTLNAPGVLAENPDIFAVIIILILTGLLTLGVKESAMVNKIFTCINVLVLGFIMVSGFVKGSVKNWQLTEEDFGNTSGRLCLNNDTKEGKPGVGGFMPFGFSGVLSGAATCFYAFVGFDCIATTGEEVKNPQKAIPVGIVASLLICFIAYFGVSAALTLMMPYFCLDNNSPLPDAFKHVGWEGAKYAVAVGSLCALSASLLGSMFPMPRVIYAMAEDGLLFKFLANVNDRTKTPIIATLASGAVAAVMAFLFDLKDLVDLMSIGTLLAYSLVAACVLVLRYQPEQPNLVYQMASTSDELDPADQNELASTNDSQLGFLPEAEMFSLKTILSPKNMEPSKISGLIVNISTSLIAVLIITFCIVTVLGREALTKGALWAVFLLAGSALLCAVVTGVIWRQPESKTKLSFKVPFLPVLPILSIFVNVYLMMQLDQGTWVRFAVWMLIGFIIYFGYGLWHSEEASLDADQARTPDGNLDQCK",
  "test": "flow cytometry on HEK293T cells transfected with siRNA to CAT1 (n=3)",
  "data": [
    {"binder": "BLV.RBD-mFc ligand (receptor-binding domain of the bovine leukemia virus envelope glycoprotein tagged in frame with the constant fragment of mouse … (Fc fusion, Used as a 1/10 dilution, detected with anti-mouse IgG1-Alexa Fluor 488; also called BLV.RBD ligand; BLV.RBD tagged with mouse Fc (mFc)) WRCSLSLGNQQWMTTYNQEAKFFISIDQILEAHNQSPFCPRSPRYTLDFVNGYPKIYWPPPQGRRRFGARAMVTYDCEPRCPYVGADHFDCPHWDNASQADQGSFYVNHQTLFLHLKQCHGIFTLTWEIWGYDPLITFSLHKIPAPPQGSVDVPRDCGCKPCICTVPEVSSVFIFPPKPKDVLTITLTPKVTCVVVDISKDDPEVQFSWFVDDVEVHTAQTQPREEQFNSTFRSVSELPIMHQDWLNGKEFKCRVNSAAFPAPIEKTISKTKGRPKAPQVYTIPPPKEQMAKDKVSLTCMITDFFPEDITVEWQWNGQPAENYKNTQPIMDTDGSYFVYSKLNVQKSNWEAGNTFTCSVLHEGLHNHHTEKSLSHSPGK", "values": [
      {"measurement": "fold decrease of binding after siRNA against CAT1 mRNA", "value": 3.5, "unit": "fold"}
    ]}
  ]
}
